The target in this experiment is trypsin-digested STING c-di-GMP binding domain (CBD) (human) (UniProt Q86WV6). Kind of experiment: SEC. In general terms: In gel filtration, larger molecules generally elute earlier.

Usually stoichiometry N stands for the number of molecules, sites or subunits per partner or assembly. Consider “trypsin-digested STING c-di-GMP binding domain (CBD) (from UniProt Q86WV6 139-379) (domain or fragment)”, for which the stoichiometry N is 2.

Values taken from article PMC3697849.
